This is an account of results in patent US20120316071A1 (published 2012).

The target of assay [1] is T1, rHuman P-Cadherin/Fc Chimera, CF (R&D Systems Cat#861-PC) (human, UniProt P22223 108-654).
T1 construct: Bought recombinant protein; Fc part of the bought chimera not given
Kind of assay: ECL multispot (MSD) binding assay, antigen spotted on plate, Fab 0.04 uM.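 Also: purified Fab incubated 1 h at 20 °C on antigen spots, detected via TAG-labelled antibody, ECL read against each well's blank, with signal-to-blank of at least 4 scored as binder.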

Assay [2] has as its target T2, rHuman Notch-1/Fc Chimera, CF (R&D Systems Cat#3647-TK) (human, UniProt P46531 19-526).
T2 construct: Bought recombinant protein; Fc part of the bought chimera not given
The description is as above.

Assay [3] addresses T3, rHuman HGF R/c-MET/Fc Chimera, CF (R&D Systems Cat#358-MT/CF) (human, UniProt P08581 25-932).
T3 construct: Bought recombinant protein; also called HGF R/Fc; hepatocyte growth factor receptor; Fc part of the bought chimera not given
The description is as above.

The target in assay [4] is T4, rHuman Erythropoietin R/Fc Chimera, CF (R&D Systems Cat#963-ER) (human, UniProt P19235 25-250).
T4 construct: Bought recombinant protein; also called EPO R; EPO R/Fc; Fc part of the bought chimera not given
T4 sequence (looked up): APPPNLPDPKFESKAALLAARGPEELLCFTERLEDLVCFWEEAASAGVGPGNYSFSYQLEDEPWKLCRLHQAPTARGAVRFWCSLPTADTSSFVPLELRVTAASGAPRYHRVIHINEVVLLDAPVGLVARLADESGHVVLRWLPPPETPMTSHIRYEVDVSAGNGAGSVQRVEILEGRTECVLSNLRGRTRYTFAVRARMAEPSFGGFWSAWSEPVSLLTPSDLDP
The description is as above.

In assay [5] the target is T5, rHuman CD44/Fc Chimera, CF (R&D Systems Cat#3660-CD) (human, UniProt P16070 21-220).
T5 construct: Bought recombinant protein; Fc part of the bought chimera not given
The description is as above.

For assay [6], the target named is T6, rHuman ErbB2/Fc Chimera, CF (R&D Systems Cat#1129-ER) (human, UniProt P04626 23-652).
T6 construct: Bought recombinant protein; also called human epidermal growth factor 2 receptor; Fc part of the bought chimera not given
The description is as above.

The target of assay [7] is T7, Recombinant Human DLL4 (R&D Systems Cat#1506-D4/CF) (human, UniProt Q9NR61 27-524).
T7 construct: Bought recombinant protein; also called delta-like protein 4; rHuman DLL4
The assay is described as above.

Assay [8] has as its target T8, rHuman EGF R/Fc Chimera, CF (R&D Systems Cat#344-ER) (human, UniProt P00533 25-645).
T8 construct: Bought recombinant protein; also called epidermal growth factor receptor; Fc part of the bought chimera not given
The description is as above.

The target of assay [9] is T9, Recombinant Human DLL4 (delta-like protein 4) (human, UniProt Q9NR61 27-524).
T9 construct: Bought recombinant protein; also called rHuman DLL4; Delta-like 4
Kind of assay: SPR, Fab on recombinant human DLL4. Background: Surface plasmon resonance follows binding to a sensor surface in real time, without labels.

In assay [10] the target is T9, Recombinant Human DLL4 (delta-like …). Kind of assay: SPR, Fab on recombinant human DLL4; column head x10^5 applied.
For assay [11] the target is unchanged. The experiment in a line: SPR, Fab on recombinant human DLL4; column head x10^-3 applied.
Assay [12] concerns the target T10, Recombinant Human DLL4 (delta-like protein 4) (human, UniProt Q9NR61 27-524).
T10 construct: also called rHuman DLL4; Delta-like 4
The experiment in a line: ELISA, Fab on plate-coated recombinant human DLL4. On the technique in general: ELISA stands for enzyme-linked immunosorbent assay.

Assay [13] has as its target T11, Recombinant Human DLL4 (R&D Systems Cat#1506-D4/CF) (human, UniProt Q9NR61 27-524).
T11 construct: bought recombinant protein; also called rHuman DLL4; delta-like protein 4
Kind of assay: ELISA and 96-well plate ECL.

The target of assay [14] is T12, rHuman ErbB2/Fc Chimera, CF (human, UniProt P04626 23-652).
T12 construct: Bought protein; also called human epidermal growth factor 2 receptor; Fc part of the bought chimera not given
Kind of assay: ECL multispot (MSD) binding assay, antigen spotted on plate, 100 nM Fab.

In assay [15] the target is T13, rHuman Notch-1/Fc Chimera, CF (human, UniProt P46531 19-526).
T13 construct: Bought protein; Fc part of the bought chimera not given
Described as above.

The target of assay [16] is T14, rHuman Erythropoietin R/Fc Chimera, CF (human, UniProt P19235 25-250).
T14 construct: Bought protein; also called EPO R; EPO R/Fc; Fc part of the bought chimera not given
T14 sequence (looked up): T4 sequence (looked up)
The description is as above.

For assay [17], the target named is T15, rHuman IGF-1 sR, (IGF-1 sR), CF (human, UniProt P08069 31-932).
T15 construct: The column head prints 'IGF-1'; The antigen panel of the assay holds the soluble IGF-1 receptor, not the ligand; also called insulin-like growth factor-1 soluble receptor
Described as above.

In assay [18] the target is T16, rHuman CD44/Fc Chimera, CF (human, UniProt P16070 21-220).
T16 construct: Bought protein; Fc part of the bought chimera not given
Described as above.

For assay [19], the target named is T17, rHuman P-Cadherin/Fc Chimera, CF (human, UniProt P22223 108-654).
T17 construct: Bought protein; Fc part of the bought chimera not given
The assay is described as above.

The target of assay [20] is T18, rHuman EGF R/Fc Chimera, CF (human, UniProt P00533 25-645).
T18 construct: Bought protein; also called epidermal growth factor receptor; Fc part of the bought chimera not given
The description is as above.

Residue numbers refer to the chain shown, from its start. In names and notes the source's numbering stands.

T3 sequence (P08581 25-932, change not shown): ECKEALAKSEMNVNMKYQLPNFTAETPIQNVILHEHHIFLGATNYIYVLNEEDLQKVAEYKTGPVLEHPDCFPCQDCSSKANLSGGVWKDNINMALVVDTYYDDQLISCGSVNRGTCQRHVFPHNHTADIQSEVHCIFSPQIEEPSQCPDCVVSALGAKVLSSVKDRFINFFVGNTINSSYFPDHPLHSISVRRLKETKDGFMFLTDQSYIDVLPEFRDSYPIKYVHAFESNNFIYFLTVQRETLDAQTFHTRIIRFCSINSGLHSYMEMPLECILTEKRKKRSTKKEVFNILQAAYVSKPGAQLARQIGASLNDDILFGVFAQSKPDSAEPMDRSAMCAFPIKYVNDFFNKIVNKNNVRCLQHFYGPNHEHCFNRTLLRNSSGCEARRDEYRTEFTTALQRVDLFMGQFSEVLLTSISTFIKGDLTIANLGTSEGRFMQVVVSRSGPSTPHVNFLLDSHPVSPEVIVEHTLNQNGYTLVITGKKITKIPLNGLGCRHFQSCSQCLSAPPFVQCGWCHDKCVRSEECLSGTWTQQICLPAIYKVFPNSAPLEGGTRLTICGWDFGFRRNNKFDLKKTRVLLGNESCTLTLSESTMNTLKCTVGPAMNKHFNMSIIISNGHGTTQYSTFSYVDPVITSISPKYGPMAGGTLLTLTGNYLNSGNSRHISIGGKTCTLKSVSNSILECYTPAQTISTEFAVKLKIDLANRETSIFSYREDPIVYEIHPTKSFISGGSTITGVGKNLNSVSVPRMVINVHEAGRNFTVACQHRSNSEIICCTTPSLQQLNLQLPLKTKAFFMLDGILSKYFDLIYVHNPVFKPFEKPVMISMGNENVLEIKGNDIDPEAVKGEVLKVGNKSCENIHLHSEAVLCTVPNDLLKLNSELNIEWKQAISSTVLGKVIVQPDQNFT

B1: Fab VH5-51_IGHD5-18*01>3_IGHJ4*01 G100K/G104T (H:KT) & V3-4_IGLJ1*01 V91A (Fab, V domains shown)
VH: EVQLVQSGAEVKKPGESLKISCKGSGYSFTSYWIGWVRQMPGKGLEWMGIIYPGDSDTRYSPSFQGQVTISADKSISTAYLQWSSLKASDTAMYYCARRKYSYTYDYFDYWGQGTLVTVSS
VL: QTVVTQEPSFSVSPGGTVTLTCGLSSGSVSTSYYPSWYQQTPGQAPRTLIYSTNTRSSGVPDRFSGSILGNKAALTITGAQADDESDYYCALYMGSGISYVFGTGTKVTVL
notes: Fab; Expressed from Plasmid A (CH1, His6 and Flag tags) and Plasmid E (lambda CL); also called KT & V91A
Consider B1, for which the ECL signal in assay [1] is 484; in [2], 682; in assay [3], 1110; in assay [4], 675; in [5] it was 632; in [6], 1120. Besides, the ECL signal in assay [7] was found to be 33400; in assay [8] it was 833.

B2: Fab VH5-51_IGHD5-18*01>3_IGHJ4*01 G100K/G104T G24T/S28R/G35V & V3-4_IGLJ1*01 V91L/S96P (Fab, V domains shown)
VH: B1 VH with G24T, S28R, G35V
VL: B1 VL with A91L, S96P
notes: Fab made in E. coli; VH was cloned in Plasmid A (CH1, His6 and Flag tags) and VL in Plasmid E (lambda CL); also called H:KT TRV & L:LP
For the molecule B2, the dissociation constant Kd in assay [9] stood at 3.3 nM. Further, the on-rate constant (kon) in assay [10] was found to be 1.1e+07 M⁻¹ s⁻¹. Moreover, the koff in assay [11] was found to be 0.036 s⁻¹.

B3: Fab VH5-51_IGHD5-18*01>3_IGHJ4*01 G100K/G104T (H:KT) & V3-4_IGLJ1*01 G23L (Fab, V domains shown)
VH: B1 VH
VL: B1 VL with G23L, A91V
notes: Fab (CH1 with His6/Flag tags from Plasmid A, lambda CL from Plasmid E); also called G100K/G104T & G23L
For B3, the “ELISA signal” value in assay [12] was determined as 0.1.

B4: Fab VH5-51_IGHD5-18*01>3_IGHJ4*01 G100K/G104T G24T/S28R/G35V & V3-4_IGLJ1*01 V91L/S96P S52G (Fab, V domains shown)
VH: B1 VH with G24T, S28R, G35V
VL: B1 VL with S52G, A91L, S96P
notes: Fab made in E. coli; VH was cloned in Plasmid A (CH1, His6 and Flag tags) and VL in Plasmid E (lambda CL); also called H:KT TRV & L:LP S52G
For B4, the Kd in assay [9] amounted to 5 nM. Besides, in assay [10], the on-rate constant (kon) was 2.96e+06 M⁻¹ s⁻¹. The koff in assay [11] came out at 0.0147 s⁻¹.

B5: Fab VH1-46_IGHD6-6*01_IGHJ1*01 S102A/S103P/S104F/H111F (H:APFF) & L6_IGKJ1*01 S28N/S30D/S31H (L:NDH) (Fab, V domains shown)
VH: QVQLVQSGAEVKKPGASVKVSCKASGYTFTSYYMHWVRQAPGQGLEWMGIINPSGGSTSYAQKFQGRVTMTRDTSTSTVYMELSSLRSEDTAVYYCAREEYAPFSAEYFQFWGQGTLVTVSS
VL: EIVLTQSPATLSLSPGERATLSCRASQNVDHYLAWYQQKPGQAPRLLIYDASNRATGIPARFSGSGSGTDFTLTISSLEPEDFAVYYCQQRSNWPPWTFGQGTKVEIKR
notes: Fab; also called H:APFF & L:NDH; APFF-NDH
As to B5, in assay [13], the “fold affinity against the parent antibody APFF mutant” value worked out at 4 fold.

B6: Fab VH1-46_IGHD6-6*01_IGHJ1*01 S102A/S103P/S104F/H111F/G56A (H:APFF G56A) & L6_IGKJ1*01 S28N/S30D/S31H (L:NDH) (Fab, V domains shown)
VH: B5 VH with G56A
VL: B5 VL
notes: Fab; also called H:APFF G56A & L:NDH
B6: the “fold affinity against the H:APFF & L:wt parental antibody mutant” value in assay [13] came to 8 fold.

B7: Fab VH3-23_IGHD2-21*01>3_IGHJ6*01 I107A & V2-13_IGLJ2*01 (Fab, V domains shown)
VH: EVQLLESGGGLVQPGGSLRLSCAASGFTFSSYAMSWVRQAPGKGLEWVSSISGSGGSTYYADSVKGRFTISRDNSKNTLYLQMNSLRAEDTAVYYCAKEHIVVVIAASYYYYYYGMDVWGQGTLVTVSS
VL: SSELTQDPAVSVALGQTVRITCQGDSLRSYYASWYQQKPGQAPVLVIYGKNNRPSGIPDRFSGSSSGNTASLTITGAQAEDEADYYCNSRDSSGNHLVVFGGGTKLTVL
notes: Tested as a Fab made in E. coli
For the molecule B7, the “ECL signal/blank ratio (quantity not given)” value in [14] was found to be 4.8; in assay [15], 2.7; in assay [16], 43.6; in assay [17] it was 1.1; in assay [18], 1.5; in assay [19] it was 19.6. Further, the “ECL signal/blank ratio (quantity not given)” value in [20] turned out to be 4.3.

B8: Fab VH3-23_IGHD2-21*01>3_IGHJ6*01 S108A & V2-13_IGLJ2*01 (Fab, V domains shown)
VH: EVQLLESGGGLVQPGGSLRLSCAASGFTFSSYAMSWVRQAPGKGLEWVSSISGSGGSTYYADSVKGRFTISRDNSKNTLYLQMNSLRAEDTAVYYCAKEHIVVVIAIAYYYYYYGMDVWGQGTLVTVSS
VL: B7 VL
notes: as for B7
B8: the “ECL signal/blank ratio (quantity not given)” value in assay [14] is 1.9; in [15] it was 1.5; in [16] it was 9.5; in assay [17] it was 1.2; in [18], 1.3; in assay [19], 4.8. Moreover, the “ECL signal/blank ratio (quantity not given)” value in assay [20] amounted to 2.

What is called Kd is the free concentration of one partner at which half of the binding sites on the other are occupied at equilibrium, for simple one-to-one binding. What is called kon is a measure of how fast the partners come together. The koff is a measure of how fast the partners let go of each other.
